Measured values: the MegaScale stability set (Tsuboyama et al. 2023)

B1: EEHEE_rd4_0763 (parent)
chain: LTVHVGNVTYHFDNPEQAEEWAKRMAKKYQGQIHVKDGQFRIE

Variants of: B1
Test: folding stability dG (cDNA display proteolysis); higher = more stable
Conditions: PBS, room temperature

Folding stability dG [kcal/mol], by site and new letter:
G31: L 2.08
W21: R -0.245, Y 1.5, N 0.008, S 0.046, E 0.341, A 0.89, Q 0.239, T 0.307, L 0.668, G 0.008, I 0.395, K -0.246, V 0.517
A26: H 0.862, Y 1.15, F 1.3, P 0.273, G 0.842, L 1.25, W 1.28, V 1.09
P15: H 1.7, K 1.78, C 1.86, W 1.91, R 1.88, E 1.47, S 1.69, T 1.58, M 1.73
V8: Y 1.78, I 1.7, W 1.81, K 1.74, N 1.41, E 1.36, G 0.756
Q30: P 1.19, A 1.64, W 1.31, T 1.2, R 1.79
Y10: F 1.54, M 0.903, G 0.153, I 0.978, S 0.143, P 0.292, D 0.031, R 1.18
A18: W 1.11, C 1.54, N 0.045, F 1.46, H 0.576, E 0.367
H11: L 1.5, I 1.56, Q 1.45, F 1.75, Y 1.85, C 2.74
F12: E -0.274, G -0.264, N -0.088, Y 0.446, R -0.481, L 0.531, D -0.211
K27: M 1.74, V 1.6, Q 1.66, S 1.55, D 1.44, G 1.13, R 1.75, W 1.45, F 1.57, T 1.58, L 1.75, I 1.76
F40: Y 1.78, T 1.2, M 1.74, Q 0.978, I 2.25, H 1.02, K 1.04
N14: M 1.31, L 1.59, R 1.45, G 1.03, Y 1.43, Q 1.37, H 1.57, V 1.39, S 1.67, W 1.24
D13: F 1.36, M 1.49, R 1.47, G 1.37, K 1.67, Q 1.57, C 2.24, E 1.6, W 1.4
T9: S 1.4, H 1.47, E 1.29, I 1.92, L 1.58, K 1.38, V 1.98
A22: F 1.23, K 0.757, N 0.383, M 1.36, S 0.821, Q 0.611
E20: A 1.87, H 1.41, G 1.18, I 1.58, L 1.69
V5: I 1.69, W 1.82, P 0.391, S 0.647, T 0.582, Y 1.41, A 1.32, N 0.616, E 0.355, K 0.531
G6: Y 1.5, D 1.43, E 1.01, T 0.772, R 1.31, S 1.11, P 0.447, W 1.5, K 1.18, N 1.71
K36: H 1.75, C 2.46, R 1.51, F 1.79, A 1.49, E 1.84, Q 1.79, M 1.67, I 2.15, V 2.24
L1: G 1.77, N 2.06, W 3.2, E 0.877, Q 1.45, K 1.51
E43: T 1.66, A 1.34, Q 1.29, H 1.44, R 1.36
K28: V 1.43, T 1.03, W 1.6, F 1.67, S 0.897, C 2.59
M25: L 1.52, V 1.23, N 0.629
H4: W 1.82, F 1.6, L 1.88, E 1.24, S 1.72, Q 1.72, T 1.85, V 1.97, R 1.82, A 1.55
Q17: Y 1.53, N 1.38, C 2.6, G 1.11, M 1.61, D 1.8, V 1.57, T 1.57, W 1.54, I 1.51, A 1.83
V35: I 1.74, Y 2.19, D 0.963, W 1.81, N 1.18, G 0.956, L 1.62, S 1.15, T 1.18, E 1.21, R 1.08
R41: M 1.94, F 3.1, S 1.57, Y 3.29, A 1.4, H 2.48
Q32: D 1.27, E 1.56, K 1.71, S 1.62, C 1.93, H 1.81, N 1.33
T2: S 1.55, K 1.41, I 1.59, A 1.51, Y 1.59, H 1.53, V 1.61, M 1.53, F 1.58, D 1.22
I42: E 1.08, N 1.05, Q 0.913, L 0.845, Y 1.12, V 1.58, W 1.32, D 1.17, A 1.02
V3: R 0.352, F 1.03, S 0.339, C 1.34, Y 0.756, N 0.243, T 0.36, E 0.235, I 1.09
H34: N 1.52, E 1.5, G 1, F 1.87, R 1.55
N7: K 1.65, A 1.6, M 1.57, W 1.65, L 1.55, C 2.65, H 1.69, T 1.67, D 1.41, R 1.76
K23: G 1.02, R 1.85, N 1.38, S 1.16, H 1.58, F 1.61
E16: K 1.77, P 0.809, Q 1.69, H 1.85, N 1.56, W 1.67, A 1.68, G 1.48, R 1.74, I 1.66, T 1.68
Q39: G 1.7, V 1.57, S 1.57, K 1.23, Y 1.37, C 2.92, I 1.52, W 1.24, A 1.71, M 1.36
E19: K 1.62, C 2.53, V 1.69, R 1.69, D 1.06, L 2.25, W 2.63
Y29: R 0.723, A 0.762, N 0.767, W 1.61, P 0.306, Q 0.696, T 1.12
R24: T 1.45, M 1.85, W 1.67, K 1.63
G38: F 1.1, E 1.07, K 0.828, T 0.621, C 2.15, P 1.18
D37: A 0.671, S 0.634, P 0.309, K 0.884, E 1.23, G 1.12, C 2.15, R 0.615, W 0.774, V 0.669
I33: F 1.41, V 1.59, P 0.833, R 0.644, E 0.735, C 2.07, G 0.819, Y 1.2, W 1.34
